The results in this text go back to paper PMC3215948 (The Journal of Cell Biology, 2006).

Numbering of substitutions follows the chain as printed. Where two headings read alike, the source gives them in different places.

Holding throughout (assay): pull-down
In assay [1] the target is T1, His6-Vps45p_(L117R) (S. cerevisiae, UniProt P38932 1-577, L117R).
T1 sequence (looked up): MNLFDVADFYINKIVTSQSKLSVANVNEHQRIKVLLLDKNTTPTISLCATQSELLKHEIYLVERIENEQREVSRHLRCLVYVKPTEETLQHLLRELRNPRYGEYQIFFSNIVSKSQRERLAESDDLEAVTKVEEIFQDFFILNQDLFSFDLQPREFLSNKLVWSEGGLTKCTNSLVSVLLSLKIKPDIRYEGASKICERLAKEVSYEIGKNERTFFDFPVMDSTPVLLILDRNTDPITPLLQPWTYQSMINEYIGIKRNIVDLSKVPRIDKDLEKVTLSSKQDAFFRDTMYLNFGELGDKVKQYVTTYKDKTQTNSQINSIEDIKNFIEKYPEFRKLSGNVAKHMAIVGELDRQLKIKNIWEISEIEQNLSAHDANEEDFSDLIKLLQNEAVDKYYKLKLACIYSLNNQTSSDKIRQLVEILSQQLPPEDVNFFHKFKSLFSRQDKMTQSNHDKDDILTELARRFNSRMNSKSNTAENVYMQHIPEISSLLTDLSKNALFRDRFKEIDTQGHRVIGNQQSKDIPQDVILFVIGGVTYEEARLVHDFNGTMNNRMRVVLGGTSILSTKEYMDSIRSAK

Assay [2] has as its target T2, His6-Vps45p (S. cerevisiae, UniProt P38932 1-577).
T2 sequence (looked up): T1 sequence (looked up) with R117L

Assay [3] addresses T2, His6-Vps45p. This is another data set of the same source.

B1: Snc2p-PrA (cytosolic domain of Snc2p fused to protein A) (domain or fragment, S. cerevisiae, UniProt P33328 1-88, looked up)
chain: MSSSVPYDPYVPPEESNSGANPNSQNKTAALRQEIDDTVGIMRDNINKVAERGERLTSIEDKADNLAISAQGFKRGANRVRKQMWWKD
For B1, the binding result in assay [1] is on record as “binds”.

B2: Snc2p_(cyto) (cytosolic domain of Snc2p, PrA tag removed by thrombin) (domain or fragment, S. cerevisiae, UniProt P33328 1-88, looked up)
chain: B1 chain
Turning to B2, the binding result in assay [2] is listed as “binds”.

B3: Snc2p_(Δ2–19)-PrA (domain or fragment, S. cerevisiae, UniProt P33328 1-88, looked up)
chain: MANPNSQNKTAALRQEIDDTVGIMRDNINKVAERGERLTSIEDKADNLAISAQGFKRGANRVRKQMWWKD
On to B3, for which the binding result in assay [3] is reported as “binds”.
